Here are results for one molecule from patent publication US20250326813A1.

The assay deals with T1, human IL2Rβ Fc fusion protein (human) (UniProt P14784).
T1 sequence (looked up): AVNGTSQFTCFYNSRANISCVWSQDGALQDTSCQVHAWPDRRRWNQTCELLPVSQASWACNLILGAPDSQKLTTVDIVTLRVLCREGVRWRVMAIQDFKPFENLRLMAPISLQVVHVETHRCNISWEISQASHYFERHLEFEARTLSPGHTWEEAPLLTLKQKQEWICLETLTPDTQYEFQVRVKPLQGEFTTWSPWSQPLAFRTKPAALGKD
Put plainly: ELISA, single concentration, anti-flag detection, E. coli-produced clone.

B1: EP569 (clone 2021EP22-E03), E. coli-produced (ligand)
chain: APASSSTKKTQLQLEHLLLDLQMILNGINNYKNPKLTRMLTFKFYMPKKATELKHLQCLEEELKPLEEVLNLAQSKNFHLRRKESINHMIVVFPVLKGSETTFMCEYADETATIVEFLNRWITFSQSIISTLT
Consider B1, for which the OD450 nm was 0.871 OD450.
